From US20170065713A1

Target: soluble HLA-A*02:01 molecules (purified MHC with human β2-microglobulin) (human)
Assay: competition with radiolabeled standard peptide for soluble HLA-A*02:01

Binder	Kd [nM]
NLLTTPKFT (modifications not checked) [gB342-350 peptide (HSV-1 glycoprotein B residues 342-350, …)]	> 500
GIFEDRAPV (modifications not checked) [gB183-191 peptide (HSV-1 glycoprotein B residues 183-191, …)]	> 500
